Data taken from US20120220530A1.

Key:
[1] = target: soluble mouse FcRn (smFcRn) (mouse) (UniProt Q61559); experiment: SPR, FcRn immobilized, steady state (Req)
[2] = target: shFcRn heterodimer produced by GeneArt AG (human) (UniProt P55899); experiment: SPR (Biacore), immobilized shFcRn
Sequence of shFcRn heterodimer produced by GeneArt AG (human) (P55899 24-290 limits assumed, chain 1 of 2): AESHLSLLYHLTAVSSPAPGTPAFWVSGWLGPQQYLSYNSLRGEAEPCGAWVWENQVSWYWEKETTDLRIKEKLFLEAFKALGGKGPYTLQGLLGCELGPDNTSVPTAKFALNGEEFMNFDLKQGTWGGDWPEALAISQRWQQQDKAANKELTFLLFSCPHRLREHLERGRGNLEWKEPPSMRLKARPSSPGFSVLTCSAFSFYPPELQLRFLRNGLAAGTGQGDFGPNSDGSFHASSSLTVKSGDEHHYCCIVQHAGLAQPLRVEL
Sequence of shFcRn heterodimer produced by GeneArt AG (human) (chain, as listed by the source limits assumed, chain 2 of 2): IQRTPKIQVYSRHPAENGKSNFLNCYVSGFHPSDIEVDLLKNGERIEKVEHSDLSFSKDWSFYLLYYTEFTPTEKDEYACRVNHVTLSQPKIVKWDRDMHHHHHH

Sequence of soluble mouse FcRn (smFcRn) (mouse) (Q61559 22-290): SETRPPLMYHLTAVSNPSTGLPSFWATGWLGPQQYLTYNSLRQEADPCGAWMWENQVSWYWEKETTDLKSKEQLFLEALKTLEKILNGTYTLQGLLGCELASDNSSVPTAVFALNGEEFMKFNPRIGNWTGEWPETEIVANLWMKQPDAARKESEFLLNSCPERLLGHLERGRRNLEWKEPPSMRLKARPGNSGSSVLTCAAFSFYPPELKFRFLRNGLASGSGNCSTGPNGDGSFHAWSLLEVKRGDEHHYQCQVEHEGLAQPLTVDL

| Kd [1] [µM] | Kd [2] [µM] | Substance |
| --- | --- | --- |
| 86.2 | – | recombinant human serum albumin (RECOMBUMIN) (from UniProt P02768 25-609) (ligand; other documents disagree on this pair) |
| – | 0.02 | HSA K573P conjugated to horseradish peroxidase (from UniProt P00433 31-338) |
